In article PMC6342957, “Structural consequence of the most frequently recurring cancer-associated substitution in DNA polymerase ε”:

Molecular target: T1, Pol2CORE P301R (DNA polymerase epsilon catalytic core) (Saccharomyces cerevisiae, UniProt P21951 1-1187, P301R)
T1 sequence: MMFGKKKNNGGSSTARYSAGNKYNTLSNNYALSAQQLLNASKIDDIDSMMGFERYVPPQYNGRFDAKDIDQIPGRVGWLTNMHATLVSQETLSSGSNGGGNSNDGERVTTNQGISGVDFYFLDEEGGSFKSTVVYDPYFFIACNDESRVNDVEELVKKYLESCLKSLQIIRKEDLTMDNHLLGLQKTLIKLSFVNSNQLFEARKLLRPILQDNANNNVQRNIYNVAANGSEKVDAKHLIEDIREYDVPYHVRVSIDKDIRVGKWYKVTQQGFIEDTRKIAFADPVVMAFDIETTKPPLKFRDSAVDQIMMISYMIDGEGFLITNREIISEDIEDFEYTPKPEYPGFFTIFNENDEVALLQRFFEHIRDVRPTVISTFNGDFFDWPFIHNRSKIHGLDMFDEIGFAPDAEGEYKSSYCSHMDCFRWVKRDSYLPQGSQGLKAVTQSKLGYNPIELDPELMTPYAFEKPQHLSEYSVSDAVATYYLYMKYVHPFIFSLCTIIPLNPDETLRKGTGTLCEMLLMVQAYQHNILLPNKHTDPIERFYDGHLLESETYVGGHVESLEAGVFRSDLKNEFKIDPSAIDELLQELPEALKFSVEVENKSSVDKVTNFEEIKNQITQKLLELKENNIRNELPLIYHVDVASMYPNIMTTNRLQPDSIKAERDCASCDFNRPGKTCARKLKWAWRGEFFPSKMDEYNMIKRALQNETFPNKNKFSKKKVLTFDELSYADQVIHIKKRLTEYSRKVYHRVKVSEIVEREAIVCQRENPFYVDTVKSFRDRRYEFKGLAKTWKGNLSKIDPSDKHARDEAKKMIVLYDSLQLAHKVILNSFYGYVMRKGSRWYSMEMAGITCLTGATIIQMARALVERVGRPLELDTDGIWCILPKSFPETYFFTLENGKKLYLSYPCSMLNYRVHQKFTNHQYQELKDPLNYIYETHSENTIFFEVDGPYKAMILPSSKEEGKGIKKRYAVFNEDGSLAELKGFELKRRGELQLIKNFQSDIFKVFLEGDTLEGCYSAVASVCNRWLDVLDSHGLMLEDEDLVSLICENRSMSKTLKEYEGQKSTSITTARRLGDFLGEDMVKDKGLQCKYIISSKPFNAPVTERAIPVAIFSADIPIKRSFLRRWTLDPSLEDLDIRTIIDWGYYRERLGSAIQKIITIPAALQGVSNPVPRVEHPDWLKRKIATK
Assay: X-ray crystallography; incoming dNTP; Ca2+ in exonuclease A-site; Crystallization conditions not in the material; protein stored in 25 mM Tris-Ac pH 7.5, 10% glycerol, 800 mM NaAc
Settings: protein: recombinant; tags: 6xHis removed with PreScission protease; 5' overhang 5 nt on template (recessed primer 3' end)

B1: KP11ddC/KT16 primer-template (dsDNA)
DNA 1: TAACCGCGTTC
DNA 2: CTCTTGAACGCGGTTA
modifications: 3'-terminal dideoxy-C on primer
Q: Does B1 bind?
A: binds
